Changes are numbered by the printed parent chain. Names may count otherwise.
T1: 6XHis-tagged TgIST-R2 (G365-S420)
T1 chain: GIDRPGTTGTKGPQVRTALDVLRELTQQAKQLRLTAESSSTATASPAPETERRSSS

B1: STAT1cc (STAT1 core fragment, A656C and N658C, locked dimer), tag-free, P42224 D627A (protein)
chain: STVMLDKQKELDSKVRNVKDKVMCIEHEIKSLEDLQDEYDFKCKTLQNREHETNGVAKSDQKQEQLLLKKMYLMLDNKRKEVVHKIIELLNVTELTQNALINDELVEWKRRQQSACIGGPPNACLDQLQNWFTIVAESLQQVRQQLKKLEELEQKYTYEHDPITKNKQVLWDRTFSLFQQLIQSSFVVERQPCMPTHPQRPLVLKTGVQFTVKLRLLVKLQELNYNLKVKVLFDKDVNERNTVKGFRKFNILGTHTKVMNMEESTNGSLAAEFRHLQLKEQKNAGTRTNEGPLIVTEELHSLSFETQLCQPGLVIDLETTSLPVVVISNVSQLPSGWASILWYNMLVAEPRNLSFFLTPPCARWAQLSEVLSWQFSSVTKRGLNVDQLNMLGEKLLGPNASPDGLIPWTRFCKENINDKNFPFWLWIESILELIKKHLLPLWNDGCIMGFISKERERALLKDQQPGTFLLRFSESSREGAITFTWVERSQNGGEPAFHAVEPYTKKELSAVTFPDIIRNYKVMACECIPENPLKYLYPNIDKDHAFGKYYSRPKEAPEPMELDGPKGTGYIKTELISVSEVH
B2: STAT1cc (STAT1 core fragment, A656C and N658C, locked dimer), tag-free, P42224 E661A (protein)
chain: B1 chain with A496D, E530A
B3: STAT1cc (STAT1 core fragment, A656C and N658C, locked dimer), tag-free, P42224 E632A (protein)
chain: MSQWYELQQLDSKFLEQVHQLYDDSFPMEIRQYLAQWLEKQDWEHAANDVSFATIRFHDLLSQLDDQYSRFSLENNFLLQHNIRKSKRNLQDNFQEDPIQMSMIIYSCLKEERKILENAQRFNQAQSGNIQSTVMLDKQKELDSKVRNVKDKVMCIEHEIKSLEDLQDEYDFKCKTLQNREHETNGVAKSDQKQEQLLLKKMYLMLDNKRKEVVHKIIELLNVTELTQNALINDELVEWKRRQQSACIGGPPNACLDQLQNWFTIVAESLQQVRQQLKKLEELEQKYTYEHDPITKNKQVLWDRTFSLFQQLIQSSFVVERQPCMPTHPQRPLVLKTGVQFTVKLRLLVKLQELNYNLKVKVLFDKDVNERNTVKGFRKFNILGTHTKVMNMEESTNGSLAAEFRHLQLKEQKNAGTRTNEGPLIVTEELHSLSFETQLCQPGLVIDLETTSLPVVVISNVSQLPSGWASILWYNMLVAEPRNLSFFLTPPCARWAQLSEVLSWQFSSVTKRGLNVDQLNMLGEKLLGPNASPDGLIPWTRFCKENINDKNFPFWLWIESILELIKKHLLPLWNDGCIMGFISKERERALLKDQQPGTFLLRFSESSREGAITFTWVERSQNGGEPDFHAVAPYTKKELSAVTFPDIIRNYKVMAAENIPENPLKYLYPNIDKDHAFGKYYSRPKEAPEPMELDGPKGTGYIKTELISVSEVHPSRLQTTDNLLPMSPEEFDEVSRIVGSVEFDSMMNTV
B4: STAT1cc (STAT1 core fragment, A656C and N658C, locked dimer), tag-free, P42224 E657A (protein)
chain: B3 chain with A632E, E657A
B5: STAT1cc (STAT1 core fragment, A656C and N658C, locked dimer), tag-free, P42224 E625A (protein)
chain: B3 chain with E625A, A632E
B6: STAT1cc (STAT1 core fragment, A656C and N658C, locked dimer), tag-free, P42224 N622A (protein)
chain: B3 chain with N622A, A632E
B7: STAT1cc (STAT1 core fragment, A656C and N658C, locked dimer), tag-free, P42224 R619A (protein)
chain: B3 chain with R619A, A632E
B8: STAT1cc (STAT1 core fragment, A656C and N658C, locked dimer), tag-free, P42224 K652A (protein)
chain: B3 chain with A632E, K652A
B9: STAT1cc (STAT1 core fragment, A656C and N658C, locked dimer), tag-free, P42224 S620A (protein)
chain: B3 chain with S620A, A632E
B10: STAT1cc (STAT1 core fragment, A656C and N658C, locked dimer), tag-free, P42224 Q594A (protein)
chain: B3 chain with Q594A, A632E
B11: STAT1cc (STAT1 core fragment, A656C and N658C, locked dimer), tag-free, P42224 K665A (protein)
chain: B3 chain with A632E, K665A
B12: STAT1cc (STAT1 core fragment, A656C and N658C, locked dimer), tag-free, P42224 D674A (protein)
chain: B3 chain with A632E, D674A

These molecules were tested against STAT1cc (STAT1 core fragment, A656C and N658C, locked dimer), tag-free (UniProt P42224) (assay: nickel affinity copurification, SDS-PAGE, Coomassie blue band quantification). Settings: parent: est. 1.0; read off a plot.

Question: For 6XHis-tagged TgIST-R2 (G365-S420) L386A, which ratio to parent is on record?
Answer: 0.02

Question: 6XHis-tagged TgIST-R2 (G365-S420) E388A was tested. Which ratio to parent did it give?
Answer: 1.1

Question: How did the ratio to parent turn out when 6XHis-tagged TgIST-R2 (G365-S420) Q378A was run?
Answer: 0.83

Question: For “6XHis-tagged TgIST-R2 (G365-S420) R416A; R417A”, which ratio to parent is on record?
Answer: 0.98

Question: How did the ratio to parent turn out when 6XHis-tagged TgIST-R2 (G365-S420) Q392A was run?
Answer: 0.91

Question: With 6XHis-tagged TgIST-R2 (G365-S420) D384A as the molecule, how does the ratio to parent read?
Answer: 0.57

Question: 6XHis-tagged TgIST-R2 (G365-S420) Q391A was tested. Which ratio to parent did it give?
Answer: 1.1

Question: Which ratio to parent does the source give for “6XHis-tagged TgIST-R2 (G365-S420) Q391A; Q392A” here?
Answer: 0.99

Question: How did the ratio to parent turn out when 6XHis-tagged TgIST-R2 (G365-S420) T381A was run?
Answer: 0.38

Question: 6XHis-tagged TgIST-R2 (G365-S420) L383A was tested. Which ratio to parent did it give?
Answer: 0.01

Question: Which ratio to parent does the source give for 6XHis-tagged TgIST-R2 (G365-S420) R387A here?
Answer: 0.03

Biological target: T1, 6XHis-tagged TgIST-R2 (G365-S420)
Assay: as above
Settings: chain shown with the change;; parent: est. 1.0; read off a plot

Question: For B1, which ratio to parent is on record?
Answer: 0.04

Question: B2 was tested. Which ratio to parent did it give?
Answer: 0.61

Question: With B3 as the molecule, how does the ratio to parent read?
Answer: 0.57

Question: For B4, which ratio to parent is on record?
Answer: 0.71

Question: How did the ratio to parent turn out when B5 was run?
Answer: 0.75

Question: For B6, which ratio to parent is on record?
Answer: 0.71

Question: With B7 as the molecule, how does the ratio to parent read?
Answer: 0.62

Question: Which ratio to parent does the source give for B8 here?
Answer: 0.4

Question: B9 was tested. Which ratio to parent did it give?
Answer: 0.8

Question: Which ratio to parent does the source give for B10 here?
Answer: 0.79

Question: For B11, which ratio to parent is on record?
Answer: 0.7

Question: Which ratio to parent does the source give for B12 here?
Answer: 0.9

What follows are molecules tested against GST-tagged TgIST-R2 (Toxoplasma gondii (type I strain GT1)) (assay: BLI; GST-tagged TgIST-R2 loaded on anti-GST biosensors, pSTAT1d or pSTAT1d-linker-R2 in solution; kinetic buffer (ForteBio), 25 °C; apparent avidity, 1:2 model). Settings: not given.

Question: With “phosphorylated STAT1 dimer (pSTAT1d), STAT1 core domain S132-H713 (from UniProt P42224 132-713) (domain or fragment)” as the molecule, how does the Kd read?
Answer: 22 nM

What follows are molecules tested against phosphorylated STAT1 dimer (pSTAT1d), STAT1 core domain S132-H713 (human) (UniProt P42224) (assay: BLI; His-tagged pSTAT1d or STAT1 monomer loaded on Ni-NTA biosensors, TgIST-R2 proteins in solution; kinetic buffer (ForteBio), 25 °C; 1:1 model for the constant). Settings: not given.

Question: How did the Kd turn out when “TgIST-R2 peptide after GST removal (domain or fragment)” was run?
Answer: 330 nM

From publication PMC9279507
